B1: Non-heme ferritin from Enterobacteriaceae (E. coli FTn) (natural protein, UniProt P0A998 1-165, looked up)
chain: MLKPEMIEKLNEQMNLELYSSLLYQQMSAWCSYHTFEGAAAFLRRHAQEEMTHMQRLFDYLTDTGNLPRINTVESPFAEYSSLDELFQETYKHEQLITQKINELAHAAMTNQDYPTFNFLQWYVSEQHEEEKLFKSIIDKLSLAGKSGEGLYFIDKELSTLDTQN
notes: Carries an inorganic iron core; also called EcFTn; source: E. coli BL21(DE3), pet22b, ferrous salt added to the medium (biomineralized), purified; copies: 24
B2: DNA protection protein from Sulfolobus solfataricus (natural protein, UniProt P95855 1-188, looked up)
chain: MQEKPQEPKVVGVEILEKSGLDIKKLVDKLVKATAAEFTTYYYYTILRMHLTGMEGEGLKEIAEDARLEDRLHFELMTQRIYELGGGLPRDIRQLADISACSDAYLPENWKDPKEILKVLLEAEQCAIRTWKEVCDMTYGKDPRTYDLAQRILQEEIEHEAWFLELLYGRPSGHFRRSSPGNAPYSKK
notes: Carries an inorganic iron core; also called ssDps; S. solfataricus Dps; source: E. coli BL21(DE3), pet22b, ferrous salt added to the medium (biomineralized), purified; copies: 12
B3: Bacterioferritin from Escherichia coli str. K-12 substr. MG1655 (natural protein)
chain: not shown
notes: Carries an inorganic iron core; also called EcBfr; Bfr; source: E. coli BL21(DE3), pet22b, ferrous salt added to the medium (biomineralized), purified; copies: 24

This data set concerns the molecule itself. The experiment in a line: negative-stain TEM and DLS; purified biomineralized ferritin, 0.1 mg/mL; stained with 1% uranyl acetate, JEM-1400 80 kV TEM; DLS at 25 °C; assembly of the subunits into the protein cage.
Take B1: the binding result is recorded as “binds”. With B2 the entry was “binds”. For B3 the value was “binds”.
